Values belong to the binder of their own block, whether it stands above or below them.
Key:
[1] = target: T1, human FcγRIIB (NM_004001) expressed on cells (human, UniProt P31994 43-310); assay: flow cytometry; Raji cells (express predominantly FcγRIIB)
T1 construct: Transiently expressed on Expi293F cells; also called Expi293F FcγRIIB; HEK293F cells expressing FcγRIIB
T1 sequence: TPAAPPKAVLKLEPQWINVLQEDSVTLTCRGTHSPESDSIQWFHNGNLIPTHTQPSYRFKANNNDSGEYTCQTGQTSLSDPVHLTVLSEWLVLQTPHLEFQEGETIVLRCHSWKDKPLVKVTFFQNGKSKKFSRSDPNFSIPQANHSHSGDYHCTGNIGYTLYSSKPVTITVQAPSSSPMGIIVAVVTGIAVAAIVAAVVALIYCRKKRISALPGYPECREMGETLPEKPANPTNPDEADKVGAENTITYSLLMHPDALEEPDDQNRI
Protocol: (§1) 2×10⁵ cells per well were seeded in 96-well plate and blocked in BSA Stain Buffer (BD Biosciences, San Jose, USA) for 30 min at 4° C. Cells were incubated with test mAbtyrin on ice for 1.5 h at 4° C. After being washed twice with BSA stain buffer, the cells were incubated with R-PE labeled anti-human or anti-mouse IgG secondary antibody (Jackson Immunoresearch Laboratories) for 45 min at 4° C. The cells were washed twice in stain buffer and then resuspended in 150 μL of Stain Buffer containing 1:200 diluted DRAQ7 live/dead stain (Cell Signaling Technology, Danvers, USA). PE and DRAQ7 signals of the stained cells were detected by Miltenyi MACSQuant flow cytometer (Miltenyi Biotec, Auburn, USA) using B2 and B4 channel respectively. Live cells were gated on DRAQ7 exclusion and the geometric mean fluorescence signals were determined for at least 10,000 live events collected. FlowJo software (Tree Star) was used for analysis. Data was plotted as the logarithm of antibody concentration versus mean fluorescence signals. Nonlinear regression analysis was performed by GraphPad Prism 6 (GraphPad Software, Inc.) and EC₅₀ values were calculated.
Raji cell is a cell line derived from B cells that express predominantly FcγRIIB. The binding of mAbtyrins on Raji cells were investigated by flow cytometry assay described for testing mAbtyrin binding to FcγR. Binding of the mAbtyrins were detected by flow cytometry using a PE-labeled Goat F(ab′) against Human IgG(γ).

FcγRIIA protein = target: T2, FcγRIIA protein (human, UniProt P12318 36-217, biotinylated (SureLINK Biotin Kit) in the ELISA of Example 1); assay: cell-based or functional assay
T2 sequence: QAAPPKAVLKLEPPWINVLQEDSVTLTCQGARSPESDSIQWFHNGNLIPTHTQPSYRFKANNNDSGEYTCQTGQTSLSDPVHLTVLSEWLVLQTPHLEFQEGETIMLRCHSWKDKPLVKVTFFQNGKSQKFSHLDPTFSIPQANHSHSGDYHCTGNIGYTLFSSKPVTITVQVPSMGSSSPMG

FcγRIIB protein = target: T3, FcγRIIB protein (human, UniProt P31994 43-217, biotinylated (SureLINK Biotin Kit) in the ELISA of Example 1); assay: cell-based or functional assay
T3 sequence: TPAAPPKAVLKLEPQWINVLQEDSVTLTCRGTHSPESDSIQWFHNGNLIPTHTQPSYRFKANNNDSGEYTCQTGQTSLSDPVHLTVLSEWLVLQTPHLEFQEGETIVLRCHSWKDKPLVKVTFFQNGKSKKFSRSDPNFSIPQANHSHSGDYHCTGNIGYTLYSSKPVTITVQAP

[2] = target: T4, human FcγRIIA (NM_021642) expressed on cells (human, UniProt P12318 36-317); assay: flow cytometry; Expi293F cells transfected with FcγRIIA
T4 construct: Transiently expressed on Expi293F cells; also used here for FcγRIIA on human macrophages in the ADCP assay; also called Expi293F FcγRIIA; HEK293F cells expressing FcγRIIA
T4 sequence: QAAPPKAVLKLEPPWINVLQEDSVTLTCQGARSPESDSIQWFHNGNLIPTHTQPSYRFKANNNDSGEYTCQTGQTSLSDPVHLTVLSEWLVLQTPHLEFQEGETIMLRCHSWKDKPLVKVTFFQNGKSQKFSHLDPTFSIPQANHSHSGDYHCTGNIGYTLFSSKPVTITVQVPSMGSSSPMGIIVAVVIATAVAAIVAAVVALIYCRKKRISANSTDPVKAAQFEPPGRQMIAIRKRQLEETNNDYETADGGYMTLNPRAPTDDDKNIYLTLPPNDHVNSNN
Protocol: (§2) Plasmids expressing cDNAs encoding human FcγRI (NM_000566) (SEQ ID NO: 44), FcγRIIA (NM_021642) (SEQ ID NO: 2), FcγRIIB (NM_004001) (SEQ ID NO: 3), and FcγRIIIA (NM_000569) (SEQ ID NO: 45) (Origene) were transiently transfected into Expi293F cells by ExpiFectamine293 transfection kit (Life Technologies). Flow cytometry assays were performed 48 h after transfection.
as §1

[3] = target: T1, human FcγRIIB (NM_004001) expressed on …; assay: flow cytometry; Expi293F cells transfected with FcγRIIB
Protocol: as §2, §1

[4] = target: T4, human FcγRIIA (NM_021642) expressed on …; assay: cell-based or functional assay
[5] = target: T5, human FcγRIIIA (NM_000569) expressed on cells (human, UniProt P08637 17-254); assay: cell-based or functional assay
T5 sequence (P08637 17-254 limits assumed): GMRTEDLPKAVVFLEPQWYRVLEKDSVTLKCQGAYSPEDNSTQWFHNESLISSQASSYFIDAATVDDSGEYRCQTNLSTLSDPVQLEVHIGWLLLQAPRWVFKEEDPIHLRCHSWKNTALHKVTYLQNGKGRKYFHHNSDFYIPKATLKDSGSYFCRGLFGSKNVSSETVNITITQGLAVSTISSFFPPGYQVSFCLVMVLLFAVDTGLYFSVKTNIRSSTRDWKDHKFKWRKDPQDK

[6] = target: T5, human FcγRIIIA (NM_000569) expressed on …; assay: flow cytometry; Expi293F cells transfected with FcγRIIIA
Protocol: as §2, §1

[7] = target: T6, human OX40 expressed on HEK-Blue: OX40 cells (human, UniProt P43489 29-277); assay: flow cytometry; HEK-Blue: OX40 cells
T6 construct: also called CD134
T6 sequence: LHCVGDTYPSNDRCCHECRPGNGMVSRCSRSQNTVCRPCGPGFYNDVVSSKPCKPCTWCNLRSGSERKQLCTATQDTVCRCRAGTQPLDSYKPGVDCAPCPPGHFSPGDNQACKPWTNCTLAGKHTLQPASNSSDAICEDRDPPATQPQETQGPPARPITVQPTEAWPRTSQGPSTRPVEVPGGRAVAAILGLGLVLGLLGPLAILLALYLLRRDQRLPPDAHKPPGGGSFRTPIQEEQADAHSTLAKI
Summary of the method: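 HEK-Blue Null 1 cells stably transfected with human OX40 were blocked, then incubated with mAbtyrin for 1.5 h at 4 °C. Binding was detected with a PE anti-human IgG F(ab′)₂ secondary, gating on DRAQ7-excluding live cells and taking geometric mean fluorescence. EC50 came from nonlinear regression versus log antibody concentration.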

[8] = target: T7, human FcγRI (NM_000566) expressed on cells (human, UniProt P12314 16-374); assay: flow cytometry; Expi293F cells transfected with FcγRI
T7 construct: Transiently expressed on Expi293F cells
T7 sequence (P12314 16-374 limits assumed): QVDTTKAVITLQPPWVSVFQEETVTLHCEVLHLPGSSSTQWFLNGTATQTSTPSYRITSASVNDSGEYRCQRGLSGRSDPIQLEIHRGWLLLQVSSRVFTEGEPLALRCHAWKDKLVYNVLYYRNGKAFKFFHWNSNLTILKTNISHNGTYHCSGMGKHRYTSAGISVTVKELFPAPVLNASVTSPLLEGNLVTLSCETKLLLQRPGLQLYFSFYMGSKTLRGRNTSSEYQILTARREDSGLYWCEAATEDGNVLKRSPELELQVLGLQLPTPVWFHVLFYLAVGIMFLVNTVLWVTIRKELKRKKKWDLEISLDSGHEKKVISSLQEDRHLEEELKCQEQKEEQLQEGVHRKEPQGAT
Protocol: as §2, §1

[9] = target: T1, human FcγRIIB (NM_004001) expressed on …; assay: cell-based or functional assay

EC50 [1]: 3.3 µg/mL
IFNγ production by activated CD4 T cells, plate-coated FcγRIIA (FcγRIIA protein): 125 pg/mL
TNFα production by activated CD4 T cells, plate-coated FcγRIIA (FcγRIIA protein): 33 pg/mL
IFNγ production by activated CD4 T cells, plate-coated FcγRIIb (FcγRIIB protein): 177 pg/mL
TNFα production by activated CD4 T cells, plate-coated FcγRIIb (FcγRIIB protein): 37 pg/mL
EC50 [2]: 0.066 µg/mL
EC50 [3]: 1 µg/mL
ADCP EC50 [4]: 0.0151 µg/mL
ADCC (fold activation) at 1 µg/ml [5]: 9 fold
EC50 [6]: 0.585 µg/mL
EC50 [7]: 0.111 µg/mL
EC50 [8]: 0.397 µg/mL
% activity at 1 µg/ml with Raji cells (HEK-Blue: OX40 NF-κB reporter) [9]: 76%
B1: OX40SF2IgG1_R2BS29_LC-C (bispecific antibody)
heavy: not shown
light: DIQMTQSPSSLSASVGDRVTITCKASQDVGAAVAWYQQKPGKAPKLLIYWASTRHTGVPSRFSGSGSGTDFTLTISSLQPEDFATYYCQQYINYPLTFGGGTKVEIKRTVAAPSVFIFPPSDEQLKSGTASVVCLLNNFYPREAKVQWKVDNALQSGNSQESVTEQDSKDSTYSLSSTLTLSKADYEKHKVYACEVTHQGLSSPVTKSFNRGECGGGGSGGGGSGGGGSGGGGSMLPAPKNLVVSRVTEDSARLSWTAPDAAFDSFPIYYWEYRVGGEAIVLTVPGSERSYDLTGLKPGTEYFVYINGVKGGEESRPLSAIFTT
notes: mAbtyrin: wild-type IgG1 OX40SF2 with linker and R2BS29 FN3 domain at the C-terminus of the light chain; also called mAbtyrin

EC50 [1]: 1.27 µg/mL
IFNγ production by activated CD4 T cells, plate-coated FcγRIIA (FcγRIIA protein): 1760 pg/mL
TNFα production by activated CD4 T cells, plate-coated FcγRIIA (FcγRIIA protein): 335 pg/mL
IFNγ production by activated CD4 T cells, plate-coated FcγRIIb (FcγRIIB protein): 1370 pg/mL
TNFα production by activated CD4 T cells, plate-coated FcγRIIb (FcγRIIB protein): 250 pg/mL
EC50 [2]: 0.063 µg/mL
EC50 [3]: 0.968 µg/mL
ADCP EC50 [4]: 0.0318 µg/mL
ADCC (fold activation) at 1 µg/ml [5]: 9 fold
EC50 [6]: 0.448 µg/mL
EC50 [7]: 0.193 µg/mL
EC50 [8]: 0.586 µg/mL
% activity at 1 µg/ml with Raji cells (HEK-Blue: OX40 NF-κB reporter) [9]: 90%
B2: OX40SF2IgG1_R2BS29_HC-C (bispecific antibody)
heavy: not shown
light: DIQMTQSPSSLSASVGDRVTITCKASQDVGAAVAWYQQKPGKAPKLLIYWASTRHTGVPSRFSGSGSGTDFTLTISSLQPEDFATYYCQQYINYPLTFGGGTKVEIKRTVAAPSVFIFPPSDEQLKSGTASVVCLLNNFYPREAKVQWKVDNALQSGNSQESVTEQDSKDSTYSLSSTLTLSKADYEKHKVYACEVTHQGLSSPVTKSFNRGEC
notes: mAbtyrin: wild-type IgG1 OX40SF2 with linker and R2BS29 FN3 domain at the C-terminus of the heavy chain; also called mAbtyrin
